From patent US20210380703A1 (RIGEL PHARMACEUTICALS, published 2021) come the findings set out here.

B1: 366_C07 (antibody, V domains shown)
VH: EVQLLESGGGLVQPGGSLRLSCAASGFTFSSYSMNWVRQAPGKGLEWVSNINYNGGYTSYADSVKGRFTISRDNSKNTLYLQMNSLRAEDTAVYYCARSATWHDTHLDYWGQGTLVTVSS
VL: DIQMTQSPSSLSASVGDRVTITCRASQSILTYVNWYQQKPGKAPKLLIYAATSRASGVPSRFSGSGSGTDFTLTISSLQPEDFATYYCQQSYNSPLTFGGGTKVEIK
notes: VH and VL only
B2: 370_A08 (antibody, V domains shown)
VH: B1 VH with S30D, N50S, G55S, S59G
VL: B1 VL with L30V, V33L, L47V, N93D, S94L
notes: VH and VL only
B3: 368_B05 (antibody, V domains shown)
VH: B1 VH with S30D, N50S, G55S, S59G
VL: not shown
notes: VH and VL only
B4: 369_A06 (antibody, V domains shown)
VH: B1 VH with S31D, S33G, S59G
VL: B1 VL with T31S, R54L, N93D, S94L
notes: VH and VL only
B5: 369_A01 (antibody, V domains shown)
VH: B1 VH with S30D, N50G, G55S, T58K, S59G
VL: B1 VL with L47V, R54L, N93E, S94L
notes: VH and VL only
B6: 369_D06 (antibody, V domains shown)
VH: B1 VH with S30D, N50G, S59G
VL: B1 VL with V33L, N93E, S94T
notes: VH and VL only
B7: 371_F12 (antibody, V domains shown)
VH: B1 VH with S30D, T58K
VL: B1 VL with L30I, T31S, V33L, Y92N, S94L
notes: VH and VL only
B8: 367_G08 (antibody, V domains shown)
VH: B1 VH with S30D, S33G, T58K, S59G
VL: B1 VL with T31S, V33L, N93E, S94N
notes: VH and VL only
B9: 366_F06 (antibody, V domains shown)
VH: B1 VH with S31D, S33G, N50S
VL: B1 VL with L30S, V33L, R54L, N93S, S94N
notes: VH and VL only
B10: 371_B10 (antibody, V domains shown)
VH: B1 VH with S30D, S59G
VL: B1 VL with L30V, T31S, N93D, S94L
notes: VH and VL only
B11: 366_E03 (antibody, V domains shown)
VH: B1 VH with S30D, S33G, T58K
VL: B1 VL with V33L, L47V, A55H, N93S, S94N
notes: VH and VL only
B12: 373_D02 (antibody, V domains shown)
VH: B1 VH with G55S, T58K, S59G
VL: B1 VL with T31S, V33L, R54L, N93D, S94L
notes: VH and VL only
B13: 369_H11 (antibody, V domains shown)
VH: B1 VH with S31D, S33G, N50S, S59G
VL: B1 VL with T31S, V33L, A55H, N93D, S94L
notes: VH and VL only
B14: 371_B05 (antibody, V domains shown)
VH: B1 VH with N50G, G55S
VL: B1 VL with V33L, L47V, R54L, Y92D, N93E, S94T
notes: VH and VL only
B15: 367_F12 (antibody, V domains shown)
VH: B1 VH with S30D, S31D, G55S, T58K, S59G
VL: not shown
notes: VH and VL only
B16: 372_H03 (antibody, V domains shown)
VH: B1 VH with S30D, S33G, T58K
VL: B1 VL with L30I, R54L, S94L
notes: VH and VL only
B17: 370_D07 (antibody, V domains shown)
VH: B1 VH with S33G, G55S, S59G
VL: B1 VL with T31S, L47V, R54L, N93E
notes: VH and VL only
B18: 367_H04 (antibody, V domains shown)
VH: B1 VH with N50S
VL: B1 VL with A55H, Y92D, S94N
notes: VH and VL only
B19: 366_E02 (antibody, V domains shown)
VH: B1 VH with N50G, G55S, T58K, S59G
VL: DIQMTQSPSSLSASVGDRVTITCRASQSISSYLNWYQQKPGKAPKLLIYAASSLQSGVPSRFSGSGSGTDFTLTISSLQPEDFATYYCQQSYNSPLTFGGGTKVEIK
notes: VH and VL only
B20: 368_G08 (antibody, V domains shown)
VH: B1 VH with S30D, S31D, S33G, N50S, G55S, T58K
VL: B1 VL with L30V, T31S, A55H, S94N
notes: VH and VL only
B21: 367_A11 (antibody, V domains shown)
VH: B1 VH with S33G, N35H, N50G
VL: B1 VL with T31S, L47V, A51T, R54L
notes: VH and VL only
B22: 369_E04 (antibody, V domains shown)
VH: B1 VH with S31D, N50G, G55S, T58K
VL: B1 VL with T31S, L47V, N93S, S94L
notes: VH and VL only
B23: 368_G07 (antibody, V domains shown)
VH: B1 VH with N35H, N50S
VL: B1 VL with L30V, T31S, L47V, N93D, S94T
notes: VH and VL only
B24: 369_C08 (antibody, V domains shown)
VH: B1 VH with S31D, S33G, S59G
VL: B1 VL with V33L, L47V, R54L, N93E, S94N
notes: VH and VL only
B25: 370_A10 (antibody, V domains shown)
VH: B1 VH with S31D, N50S, G55S, T58K, S59G
VL: B1 VL with T31S, R54L, N93D, S94T
notes: VH and VL only
B26: 367_D02 (antibody, V domains shown)
VH: B1 VH with S30D, S31D
VL: B1 VL with L30V, N93E, S94N
notes: VH and VL only
B27: 369_F04 (antibody, V domains shown)
VH: B1 VH with S33G, N50G
VL: B1 VL with L30I, T31S, A55H, N93D, S94N
notes: VH and VL only
B28: 369_G09 (antibody, V domains shown)
VH: B1 VH with S30D, S59G
VL: B1 VL with L30V, V33L, N93D, S94L
notes: VH and VL only
B29: 369_E09 (antibody, V domains shown)
VH: B1 VH with S30D, G55S, T58K, S59G
VL: B1 VL with T31S, V33L, L47V, N93D, S94L
notes: VH and VL only
B30: 373_A07 (antibody, V domains shown)
VH: B1 VH with S59G
VL: B1 VL with Y92D, S94L
notes: VH and VL only

Substitutions are numbered along the chain they refer to.
Also: test concentration or dose not given here.

Chain of mouse ACVR2A (P27038 20-135 limits assumed): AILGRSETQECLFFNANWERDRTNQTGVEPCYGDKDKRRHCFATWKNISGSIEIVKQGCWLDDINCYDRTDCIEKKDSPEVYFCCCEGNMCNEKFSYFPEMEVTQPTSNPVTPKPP

In one experiment the target is T1, biotinylated goat anti-human kappa light chain.
T1 construct: Positive control of the ELISA
Put plainly: ELISA, positive control. The method in brief: (§1)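 Monoclonal antibodies were first applied to human or mouse ACVR2A, alongside biotinylated goat anti-human kappa light chain (positive control) and human Fc (negative control); binding was then determined by ELISA.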
For orientation: ELISA stands for enzyme-linked immunosorbent assay.
The molecule B1 yielded an optical density of 3.37 OD.

On to B2, for which the optical density worked out at 3.52 OD.

The molecule B3 yielded an optical density of 3.26 OD.

In the case of B4, the optical density is 3.32 OD.

Regarding B5, the optical density stood at 3.55 OD.

Turning to B6, the optical density came to 3.11 OD.

Consider B7, for which the optical density is 3.62 OD.

With B8, the optical density turned out to be 3.32 OD.

For the molecule B9, the optical density turned out to be 3.44 OD.

As for B10, the optical density is 3.44 OD.

B11: the optical density was found to be 3.54 OD.

As to B12, the optical density was found to be 3.19 OD.

In turn, B13 yielded an optical density of 2.21 OD.

B14 came in with an optical density of 1.65 OD.

On to B15, for which the optical density is 3.6 OD.

Molecule B16 returned an optical density of 3.64 OD.

Molecule B17 came in with an optical density of 3.38 OD.

On to B18, for which the optical density is 3.4 OD.

The molecule B19 returned an optical density of 3.46 OD.

In turn, B20 registered an optical density of 3.29 OD.

Regarding B21, the optical density turned out to be 3.61 OD.

The molecule B22 returned an optical density of 3.52 OD.

Take B23: the optical density turned out to be 3.16 OD.

B24 registered an optical density of 2.8 OD.

Molecule B25 showed an optical density of 3.47 OD.

Turning to B26, the optical density amounted to 3.46 OD.

Molecule B27 gave an optical density of 3.46 OD.

Consider B28, for which the optical density was 3.6 OD.

For B29, the optical density came out at 3.48 OD.

In turn, B30 had an optical density of 3.11 OD.

Another experiment addresses mouse ACVR2A (mouse, UniProt P27038 20-135, limits assumed). Put plainly: ELISA. The method, boiled down:
as §1
As to B1, the optical density came out at 3.06 OD.

In turn, B2 showed an optical density of 2.33 OD.

Molecule B3 showed an optical density of 1.75 OD.

B4 displayed an optical density of 3.01 OD.

The molecule B5 returned an optical density of 3.66 OD.

B6 came in with an optical density of 3.35 OD.

Regarding B7, the optical density is 2.3 OD.

For the molecule B8, the optical density came out at 2.78 OD.

In turn, B9 registered an optical density of 2.15 OD.

In the case of B10, the optical density was 3.36 OD.

Turning to B11, the optical density came to 2.72 OD.

B12 gave an optical density of 3.65 OD.

For B13, the optical density was found to be 1.64 OD.

B14 returned an optical density of 1.24 OD.

The molecule B15 returned an optical density of 2.29 OD.

B16 showed an optical density of 2.7 OD.

B17 had an optical density of 3.14 OD.

B18 had an optical density of 1.85 OD.

For B19, the optical density was determined as 2.58 OD.

On to B20, for which the optical density was 1.75 OD.

As to B21, the optical density turned out to be 2.52 OD.

In turn, B22 returned an optical density of 3.3 OD.

For B23, the optical density was determined as 2.05 OD.

In turn, B24 came in with an optical density of 2.33 OD.

For the molecule B25, the optical density amounted to 2.88 OD.

Molecule B26 gave an optical density of 2.46 OD.

The molecule B27 came in with an optical density of 2.17 OD.

For the molecule B28, the optical density was 3.27 OD.

Molecule B29 returned an optical density of 3.77 OD.

The molecule B30 displayed an optical density of 3.59 OD.

The target of the next experiment is T2, human ACVR2A (human, UniProt P27037 20-135, limits assumed).
T2 construct: also called activin receptor, type II A
T2 sequence (P27037 20-135 limits assumed): as the sequence (P27038 20-135 limits assumed) above, with R20K, I73V counted along it
Put plainly: ELISA. The method in brief: as §1
As for B1, the optical density turned out to be 3.02 OD.

Turning to B2, the optical density worked out at 2.41 OD.

In turn, B3 yielded an optical density of 1.73 OD.

B4: the optical density was 2.89 OD.

Turning to B5, the optical density stood at 3.6 OD.

In the case of B6, the optical density stood at 3.44 OD.

On to B7, for which the optical density came to 2.47 OD.

For the molecule B8, the optical density was found to be 2.69 OD.

In the case of B9, the optical density turned out to be 1.87 OD.

As to B10, the optical density was 3.31 OD.

Molecule B11 had an optical density of 2.55 OD.

For the molecule B12, the optical density came out at 3.73 OD.

The molecule B13 yielded an optical density of 1.45 OD.

As to B14, the optical density was 1.05 OD.

Regarding B15, the optical density was 2.38 OD.

B16 had an optical density of 2.32 OD.

B17 had an optical density of 2.81 OD.

The molecule B18 showed an optical density of 1.62 OD.

B19 showed an optical density of 2.26 OD.

As to B20, the optical density was found to be 1.6 OD.

B21 came in with an optical density of 2.34 OD.

In turn, B22 returned an optical density of 2.88 OD.

B23 returned an optical density of 1.79 OD.

In the case of B24, the optical density came to 2.32 OD.

The molecule B25 registered an optical density of 2.58 OD.

B26 returned an optical density of 2.46 OD.

B27 registered an optical density of 1.95 OD.

In the case of B28, the optical density came to 3.36 OD.

Regarding B29, the optical density was found to be 3.63 OD.

B30 displayed an optical density of 3.52 OD.
